Results on four molecules are retold here after publication PMC6802964 (2019).

One assay deals with T1, Myo1 IQ12 (Schizosaccharomyces pombe, UniProt Q9Y7Z8).
T1 chain: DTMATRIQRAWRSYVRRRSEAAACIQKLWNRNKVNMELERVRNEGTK
Description: FRET.

Assay [1] concerns the target T2, CyPet–Myo1^IQ1–YPet FRET reporter protein (S. pombe).
T2 chain: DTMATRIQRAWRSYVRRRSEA
Kind of assay: FRET.

The target in assay [2] is T3, CyPet–Myo1^IQ12–YPet FRET reporter protein (S. pombe).
T3 chain: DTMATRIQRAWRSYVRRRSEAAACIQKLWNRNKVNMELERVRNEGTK
Description: FRET; first site (Kd1).

For assay [3], the target named is T4, CyPet–Myo1^IQ12S742D–YPet FRET reporter protein (S742D phosphomimetic) (S. pombe).
T4 chain: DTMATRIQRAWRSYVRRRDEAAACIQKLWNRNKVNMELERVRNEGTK
Description: FRET; first site (Kd1).

Assay [4] addresses T4, CyPet–Myo1^IQ12S742D–YPet FRET reporter …. Kind of assay: FRET; second site (Kd2).
Assay [5] has the same target. Description: FRET.

B1: Cam1 (protein)
chain: not shown
Consider B1, for which the Kd (commonly the free concentration of one partner at which half of the binding sites on the other are occupied at equilibrium, for simple one-to-one binding) with Myo1 IQ12 was found to be 680 nM.

B2: Cam1 (wild type, amino-terminally acetylated fission yeast calmodulin) (natural protein)
chain: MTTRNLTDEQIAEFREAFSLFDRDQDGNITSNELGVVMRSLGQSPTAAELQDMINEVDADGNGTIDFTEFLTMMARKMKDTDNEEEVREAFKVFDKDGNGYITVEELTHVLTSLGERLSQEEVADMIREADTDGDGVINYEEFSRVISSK
modifications: amino-terminally (Nt) acetylated
On to B2, for which the Kd turned out to be 60 nM in assay [1], 40 nM in assay [2], 90 nM in assay [3] and 540 nM in assay [4].

B3: Cam2 (protein)
chain: MPASKEQTDEMKEAFVLYDIDKDGLIPTSHVGSVLRSLGINVTDAELAKLSNELGDAIDEKKFMSFVSNKLRETESEEEYIKAFRVFDKDNSGYIETAKFADYMKTLGEKLSDNEVQLMVQEADPTNSGSFDYYDFVQRIMAK
On to B3, for which, in the assay with Myo1 IQ12, the equilibrium dissociation constant (Kd) amounted to 1100 nM.

B4: Cam2 (calcium-insensitive calmodulin-like protein) (natural protein)
chain: MPASKEQTDEMKEAFVLYDIDKDGLIPTSHVGSVLRSLGINVTDAELAKLSNELGDAIDEKKFMSFVSNKLRETESEEEYIKAFRVFDKDNSGYIETAKFADYMKTLGEKLSDNEVQLMVQEADPTNSGSFDYYDFVQRIMAK
Turning to B4, the values for the Kd in assay [5] and in assay [2] were 250 nM and 20 nM, respectively.
